According to patent publication US20190284293A1 (Bristol-Myers Squibb, published 2019):
Several values for one entry are separate records, joined by “and”; a condition that tells them apart may be missing. Identical values can stand only once. Each block holds one binder with its values, some of them ahead of it.

Key:
[1] = biological target: T1, N-hCD73-his (N-terminal domain of human CD73, residues 26-336, His tag) (human, UniProt P21589 26-336); experiment: SPR
T1 sequence: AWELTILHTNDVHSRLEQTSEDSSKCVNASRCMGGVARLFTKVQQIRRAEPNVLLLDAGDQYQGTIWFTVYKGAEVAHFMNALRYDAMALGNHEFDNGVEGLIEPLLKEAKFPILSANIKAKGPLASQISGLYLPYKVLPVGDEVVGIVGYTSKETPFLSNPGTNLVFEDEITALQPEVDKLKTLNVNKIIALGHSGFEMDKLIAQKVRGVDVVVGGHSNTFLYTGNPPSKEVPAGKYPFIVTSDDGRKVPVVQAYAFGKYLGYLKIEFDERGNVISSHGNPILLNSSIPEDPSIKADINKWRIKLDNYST

human CD73 on cells [2] = biological target: T2, human CD73 on cells (human, UniProt P21589 27-549); experiment: cell-based or functional assay
T2 sequence: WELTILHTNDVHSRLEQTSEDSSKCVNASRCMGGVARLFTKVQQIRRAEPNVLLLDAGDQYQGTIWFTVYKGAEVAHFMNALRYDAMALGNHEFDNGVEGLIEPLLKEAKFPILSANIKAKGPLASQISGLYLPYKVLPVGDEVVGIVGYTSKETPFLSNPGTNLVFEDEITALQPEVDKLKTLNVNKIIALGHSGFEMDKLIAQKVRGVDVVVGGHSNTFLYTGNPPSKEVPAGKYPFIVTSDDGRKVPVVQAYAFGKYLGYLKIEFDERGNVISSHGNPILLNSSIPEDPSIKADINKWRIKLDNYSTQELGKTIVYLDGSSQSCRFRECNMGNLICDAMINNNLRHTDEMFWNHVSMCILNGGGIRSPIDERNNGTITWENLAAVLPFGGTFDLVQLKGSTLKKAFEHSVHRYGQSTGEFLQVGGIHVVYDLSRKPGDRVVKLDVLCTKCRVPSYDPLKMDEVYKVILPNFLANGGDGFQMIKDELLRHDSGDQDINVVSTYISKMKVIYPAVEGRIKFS

[3] = biological target: T1, N-hCD73-his (N-terminal domain of human …); experiment: SPR, mAb captured on protein A
Experimental: For these experiments, protein A (Pierce) was immobilized to a density of 3000-4000 RU on flow cells 1-4 of a CM5 sensor chip (GE Healthcare) using standard ethyl(dimethylaminopropyl) carbodiimide (EDC)/N-hydroxysuccinimide […] chemistry, with ethanolamine blocking, in a running buffer of 0.01 M HEPES pH 7.4, 0.15 M NaCl, 3 mM EDTA, 0.005% v/v tween 20. […] The running buffer for the kinetic experiments was 10 mM sodium phosphate, 130 mM sodium chloride, 0.05% tween 20, pH 7.1. The surfaces were regenerated after each cycle using two 30 s pulses of 10 mM glycine pH 1.5 at a flow rate of 30 μl/min. Sensogram data was double-referenced and then fitted to a 1:1 Langmuir model using Biacore T100 evaluation software v2.0.4, to determine the association rate constant (ka), the dissociation rate constant (kd), and the equilibrium dissociation constant (KD).

[4] = biological target: T3, rhCD73 bound to his-tag magnet beads (human, UniProt P21589 27-547, limits assumed); experiment: cell-based or functional assay
T3 sequence: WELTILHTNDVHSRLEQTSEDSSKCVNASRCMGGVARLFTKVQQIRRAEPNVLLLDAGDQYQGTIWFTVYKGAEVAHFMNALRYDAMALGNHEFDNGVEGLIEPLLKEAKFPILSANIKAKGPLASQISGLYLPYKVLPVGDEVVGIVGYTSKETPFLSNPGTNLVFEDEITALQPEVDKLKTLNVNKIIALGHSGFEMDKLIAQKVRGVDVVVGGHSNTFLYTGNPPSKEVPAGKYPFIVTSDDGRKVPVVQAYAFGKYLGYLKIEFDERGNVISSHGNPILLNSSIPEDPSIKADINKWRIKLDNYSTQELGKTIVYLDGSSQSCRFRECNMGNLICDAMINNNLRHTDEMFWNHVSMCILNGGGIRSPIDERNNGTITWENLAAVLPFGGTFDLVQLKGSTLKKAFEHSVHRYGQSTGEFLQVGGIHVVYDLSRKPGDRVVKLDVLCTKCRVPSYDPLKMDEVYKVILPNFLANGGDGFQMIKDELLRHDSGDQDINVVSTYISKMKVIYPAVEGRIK

human CD73 on cells [5] = biological target: T2, human CD73 on cells; experiment: cell-based or functional assay; remark: listed apart in the source
human CD73 on cells [6] = biological target: T2, human CD73 on cells; experiment: binding titration on Calu6 cells, average of 2-6 experiments

Kd [1]: 100 to 200 nM
Ymax, cAMP HTRF assay (percent of 100 nM 11F11 control) (human CD73 on cells [2]): 80%
B1: 4C3 (antibody, human IgG1, kappa, V domains shown)
VH: EVQLVESGGGLVQPGRSLRLSCAASGFTFDDYAMHWVRQAPGKGLEWVSGISWKSGSIGYADSVKGRFTISRDNAKNSLYLQMNSLRAEDTALYYCVKGYYVILTGLDYWGQGTLVTVSS
VL: not shown
notes: IgG1za; also called 4C3-1

Kd [1]: ~5 nM
Kd [3]: 3.5 nM and 6.5 nM
koff [3]: 0.00028 s⁻¹ and 0.00051 s⁻¹
kon [3]: 80000 M⁻¹ s⁻¹ and 79000 M⁻¹ s⁻¹
B2: CD73.11-IgG2-C219S (antibody)
heavy: QVQLVESGGGVVQPGRSLRLSCAASGFTFSNYGMHWVRQAPGKGLEWVAVIWYDESNKYYADSVKGRFTISRDNSKNTLFLQMNSLRAEDTAVYYCARGYNSRWYPDAFDIWGQGTMVTVSSASTKGPSVFPLAPCSRSTSESTAALGCLVKDYFPEPVTVSWNSGALTSGVHTFPAVLQSSGLYSLSSVVTVPSSNFGTQTYTCNVDHKPSNTKVDKTVERKSCVECPPCPAPPVAGPSVFLFPPKPKDTLMISRTPEVTCVVVDVSHEDPEVQFNWYVDGVEVHNAKTKPREEQFNSTFRVVSVLTVVHQDWLNGKEYKCKVSNKGLPAPIEKTISKTKGQPREPQVYTLPPSREEMTKNQVSLTCLVKGFYPSDIAVEWESNGQPENNYKTTPPMLDSDGSFFLYSKLTVDKSRWQQGNVFSCSVMHEALHNHYTQKSLSLSPG
light: not shown
notes: 4D4 variable regions; also called CD73.11-IgG2CS; mAb-CD73.11-Vh-hHC-IgG2-C219S

Kd [1]: ~5 nM
EC50 (nM), inhibition of bead-bound human CD73 enzymatic activity [4]: 5.31 nM
EC50 (nM), high-content internalization assay, Calu6, 2 h (human CD73 on cells [5]): 0.38 nM
Ymax, high-content internalization assay (percent of 100 nM 11F11) (human CD73 on cells [5]): 104%
Kd [3]: 9.4 nM and 6.2 nM
koff [3]: 0.00077 s⁻¹ and 0.00049 s⁻¹
kon [3]: 82000 M⁻¹ s⁻¹ and 79000 M⁻¹ s⁻¹
EC50 (human CD73 on cells [6]): 0.82 nM
B3: 4D4 (antibody, human IgG2, kappa)
heavy: QVQLVESGGGVVQPGRSLRLSCAASGFTFSNYGMHWVRQAPGKGLEWVAVIWYDESNKYYADSVKGRFTISRDNSKNTLFLQMNSLRAEDTAVYYCARGYNSRWYPDAFDIWGQGTMVTVSSASTKGPSVFPLAPCSRSTSESTAALGCLVKDYFPEPVTVSWNSGALTSGVHTFPAVLQSSGLYSLSSVVTVPSSNFGTQTYTCNVDHKPSNTKVDKTVERKCCVECPPCPAPPVAGPSVFLFPPKPKDTLMISRTPEVTCVVVDVSHEDPEVQFNWYVDGVEVHNAKTKPREEQFNSTFRVVSVLTVVHQDWLNGKEYKCKVSNKGLPAPIEKTISKTKGQPREPQVYTLPPSREEMTKNQVSLTCLVKGFYPSDIAVEWESNGQPENNYKTTPPMLDSDGSFFLYSKLTVDKSRWQQGNVFSCSVMHEALHNHYTQKSLSLSPGK
light: not shown
notes: IgG2; also called 4D4-1
